The assay addresses integrin alpha(IIb)beta(3) (UniProt P08514). In words: cell-based or functional assay.

In patent publication US20240084280A1 one finds IC50: platelet aggregation (ADP-induced, platelet-rich plasma) data, which are given here for one molecule.

B1: trimucrin variant RR (protein)
chain: EAGEECDCGSPENPCCDAATCKLRPGAQCAEGLCCDQCRFKKKRTICRRAKGDRRDDRCTGQSADCPRNRLYG
Regarding B1, the IC50: platelet aggregation (ADP-induced, platelet-rich plasma) worked out at 0.0525 µM.
